Experimental data reported in patent US20230212319A1, “NOVEL ANTIGEN BINDING DOMAINS AND SYNTHETIC ANTIGEN RECEPTORS INCORPORATING THE SAME” (University of Southern California, priority 2020, published 2023).

The molecules below were run on RAJI cells (assay: JNG assay, co-culture with RAJI cells). Conditions: JNG cells expressing construct, co-culture with Raji.
Assay type: cell-based
Method: Cellular supernatant is collected and assayed for the induction of cytokines (e.g., IL2).
JNG (Jurkat cells expressing EGFP under an NFAT promoter) were infected with lentiviral vectors encoding different single chain and multi-chain SARs by spinfection in the presence of 8 µg/ml of Polybrene® (Sigma, Catalog no. H9268). The Jurkat-NFAT-GFP cells are engineered in such a way that the IL-2 promoter, which carries NFAT binding sites, is cloned upstream of the GFP gene. These cells have been used to study signaling via TCR and CAR. The different SARs were stably expressed in Jurkat NFAT-GFP cells by lentiviral mediated gene transfer, followed by selection with puromycin or blasticidin. No drug selection was used in case the construct lacked an antibiotic resistance gene. The SAR-expressing Jurkat-NFAT-GFP cells were cocultured with the target cells at E:T ratio of approximately 1:2 for approximately 4 hours to 18 hours. When the interaction between SIRs and their target antigen results in activation of the NFAT pathway, GFP expression is induced. […] GFP expression was monitored by FACS analysis. The Jurkat-NFAT-GFP (parental) cells were used as control. The structure of different constructs can be determined based on their names. […] The sequence of the other constructs in the table can be similarly determined from their names and by referring to the different Tables of this disclosure that provide the names and SEQ ID NO of the different modules. Alternatively, the composition and modular architecture of the different SAR constructs can be determined from their sequences by bioinformatics tools, including using nucleic acid and amino acids homology searches. A SAR is considered positive in the assay in case the SAR expressing Jurkat-NFAT-GFP cells show greater % GFP positive cells when cultured with the target cell line as compared to parental Jurkat-NFAT-GFP cells. […] In general, the number +/-, +, 2+, 3+, 4+, 5+ refer to approximately 5%, 10%, 20%, 30%, 40% and 50% GFP positive cells. The % of GFP induction in the above assay is dependent not only the relative strength of the SAR but also, among other factors, on the relative level of expression of the SAR in the JNG cells and the relative level of expression of the target antigen in the target cell line. To control for the difference in gene transduction efficiency of the different SAR constructs, the experiment was conducted with JNG cells transduced with SAR constructs co-expressing a drug resistance gene (e.g., puromycin or PAC) followed by drug selection to generate a stable population of SAR-expressing cells. It is to be noted that the drug resistance gene (e.g., PAC) in the SAR constructs is optional and in vivo studies were conducted with SAR constructs lacking the PAC gene.

Row | Molecule | NFAT-GFP ASSAY: Raji
1 | 22001 (protein) MALPVTALLLPLALLLHAARPQLQLQESGPGLVKPSETLSLTCTVSGDSISSGDYYWGWIRQPPGKGLEWIGHIYYSGVTYYNPSLKSRVTISVDTSRNQFSLKLSSVTAADTAVYYCTREDSSNWRSRGQGTLVTVSSLEPGGGGSPEDLKNVFPPEVAVFEPSEAEISHTQKATLVCLATGFYPDHVELSWWVNGKEVHSGVCTDPQPLKEQPALNDSRYCLSSRLRVSATFWQNPRNHFRCQVQFYGLSENDEWTQDRAKPVTQIVSAEAWGRADCGFTSESYQQGVLSATILYEILLGKATLYAVLVSALVLMAMVKRKDSRGRAKRSGSGATNFSLLKQAGDVEENPGPTSMDWIWRILFLVGAATGAHSFEVQLLESGGGLIQPGGSLRLSCAASGFTFSSHAMTWVRQAPGKGLEWVSAISGSGDYTHYADSVKGRFTISRDNSKNTVYLQMNSLRAEDSAVYYCAKDEDGGSLLGHRGQGTLVTVSSTRIQNPDPAVYQLRDSKSSDKSVCLFTDFDSQTNVSQSKDSDVYITDKCVLDMRSMDFKSNSAVAWSNKSDFACANAFNNSIIPEDTFFPSPESSCDVKLVEKSFETDTNLNFQNLSVIGFRILLLKVAGFNLLMTLRLWSSRAKRSGSGVKQTLNFDLLKLAGDVESNPGPSRGHMTEYKPTVRLATRDDVPRAVRTLAAAFADYPATRHTVDPDRHIERVTELQELFLTRVGLDIGKVWVADDGAAVAVWTTPESVEAGAVFAEIGPRMAELSGSRLAAQQQMEGLLAPHRPKEPAWFLATVGVSPDHQGKGLGSAVVLPGVEAAERAGVPAFLETSAPRNLPFYERLGFTVTADVEVPEGPRTWCMTRKPGA | +/- (refer to approximately 5%, 10%, 20%, 30%, 40% and 50% GFP positive cells)
2 | 21993 (protein) MALPVTALLLPLALLLHAARPQLQLQESGPGLVKPSETLSLTCTVSGDSISSGDYYWGWIRQPPGKGLEWIGHIYYSGVTYYNPSLKSRVTISVDTSRNQFSLKLSSVTAADTAVYYCTREDSSNWRSRGQGTLVTVSSLEDLKNVFPPEVAVFEPSEAEISHTQKATLVCLATGFYPDHVELSWWVNGKEVHSGVCTDPQPLKEQPALNDSRYCLSSRLRVSATFWQNPRNHFRCQVQFYGLSENDEWTQDRAKPVTQIVSAEAWGRADCGFTSESYQQGVLSATILYEILLGKATLYAVLVSALVLMAMVKRKDSRGRAKRSGSGATNFSLLKQAGDVEENPGPTSMDWIWRILFLVGAATGAHSFEQLQLQESGPGLVKPSETLSLTCTVSGGSISSGDYYWGWIRQPPGKGLEWIGHIYYSGATYYNPSLKSRVTISVDTSRNQFSLKLSSVTAADTAVYYCTRDDSSNWRSRGQGTLVTVSSTRIQNPDPAVYQLRDSKSSDKSVCLFTDFDSQTNVSQSKDSDVYITDKCVLDMRSMDFKSNSAVAWSNKSDFACANAFNNSIIPEDTFFPSPESSCDVKLVEKSFETDTNLNFQNLSVIGFRILLLKVAGFNLLMTLRLWSSRAKRSGSGVKQTLNFDLLKLAGDVESNPGPSRGHMTEYKPTVRLATRDDVPRAVRTLAAAFADYPATRHTVDPDRHIERVTELQELFLTRVGLDIGKVWVADDGAAVAVWTTPESVEAGAVFAEIGPRMAELSGSRLAAQQQMEGLLAPHRPKEPAWFLATVGVSPDHQGKGLGSAVVLPGVEAAERAGVPAFLETSAPRNLPFYERLGFTVTADVEVPEGPRTWCMTRKPGA | Raji (+/-) (refer to approximately 5%, 10%, 20%, 30%, 40% and 50% GFP positive cells)
3 | 22085 (protein) MALPVTALLLPLALLLHAARPQLQLQESGPGLVKPSETLSLTCTVSGDSISSGDYYWGWIRQPPGKGLEWIGHIYYSGVTYYNPSLKSRVTISVDTSRNQFSLKLSSVTAADTAVYYCTREDSSNWRSRGQGTLVTVSSLEGSGGGGSGGGGSGEDLKNVFPPEVAVFEPSEAEISHTQKATLVCLATGFYPDHVELSWWVNGKEVHSGVCTDPQPLKEQPALNDSRYCLSSRLRVSATFWQNPRNHFRCQVQFYGLSENDEWTQDRAKPVTQIVSAEAWGRADCGFTSESYQQGVLSATILYEILLGKATLYAVLVSALVLMAMVKRKDSRGRAKRSGSGATNFSLLKQAGDVEENPGPTSMDWIWRILFLVGAATGAHSFEVQLLESGGGLIQPGGSLRLSCAASGFTFSSHAMTWVRQAPGKGLEWVSAISGSGDYTHYADSVKGRFTISRDNSKNTVYLQMNSLRAEDSAVYYCAKDEDGGSLLGHRGQGTLVTVSSTRGSIPEDTFFPSPESSCDVKLVEKSFETDTNLNFQNLSVIGFRILLLKVAGFNLLMTLRLWSS | +/- (refer to approximately 5%, 10%, 20%, 30%, 40% and 50% GFP positive cells)
4 | 22084 (protein) MALPVTALLLPLALLLHAARPQLQLQESGPGLVKPSETLSLTCTVSGDSISSGDYYWGWIRQPPGKGLEWIGHIYYSGVTYYNPSLKSRVTISVDTSRNQFSLKLSSVTAADTAVYYCTREDSSNWRSRGQGTLVTVSSLDSGGGGSFEQLQLQESGPGLVKPSETLSLTCTVSGGSISSGDYYWGWIRQPPGKGLEWIGHIYYSGATYYNPSLKSRVTISVDTSRNQFSLKLSSVTAADTAVYYCTRDDSSNWRSRGQGTLVTVSSTRDKTHTCPPCPAIPEDTFFPSPESSCDVKLVEKSFETDTNLNFQNLSVIGFRILLLKVAGFNLLMTLRLWSS | +/- (refer to approximately 5%, 10%, 20%, 30%, 40% and 50% GFP positive cells)
5 | 21995 (protein) MALPVTALLLPLALLLHAARPQLQLQESGPGLVKPSETLSLTCTVSGDSISSGDYYWGWIRQPPGKGLEWIGHIYYSGVTYYNPSLKSRVTISVDTSRNQFSLKLSSVTAADTAVYYCTREDSSNWRSRGQGTLVTVSSLEDLKNVFPPEVAVFEPSEAEISHTQKATLVCLATGFYPDHVELSWWVNGKEVHSGVCTDPQPLKEQPALNDSRYCLSSRLRVSATFWQNPRNHFRCQVQFYGLSENDEWTQDRAKPVTQIVSAEAWGRADCGFTSESYQQGVLSATILYEILLGKATLYAVLVSALVLMAMVKRKDSRGRAKRSGSGATNFSLLKQAGDVEENPGPTSMDWIWRILFLVGAATGAHSFEVQLLESGGGLVQPGGSLRLSCAASGFIFSIYAMSWVRQAPGKGLEWVSGISGSGVNTYYADSVKGRFIISRDNSRNTVYLQMNSLRADDTAVYHCANGKGWDGNTWYEDYRGQGTLVTVSSTRIQNPDPAVYQLRDSKSSDKSVCLFTDFDSQTNVSQSKDSDVYITDKCVLDMRSMDFKSNSAVAWSNKSDFACANAFNNSIIPEDTFFPSPESSCDVKLVEKSFETDTNLNFQNLSVIGFRILLLKVAGFNLLMTLRLWSSRAKRSGSGVKQTLNFDLLKLAGDVESNPGPSRGHMTEYKPTVRLATRDDVPRAVRTLAAAFADYPATRHTVDPDRHIERVTELQELFLTRVGLDIGKVWVADDGAAVAVWTTPESVEAGAVFAEIGPRMAELSGSRLAAQQQMEGLLAPHRPKEPAWFLATVGVSPDHQGKGLGSAVVLPGVEAAERAGVPAFLETSAPRNLPFYERLGFTVTADVEVPEGPRTWCMTRKPGA | + (refer to approximately 5%, 10%, 20%, 30%, 40% and 50% GFP positive cells)

Same assay, conditions: co-culture with RAJI cells

Row | Molecule | GFP induction / activity
6 | SEQ ID NO: 22254: bispecific SAR on CD19 targeted SIR backbone comprising the receptor binding domain of the ligand APRIL (protein) MALPVTALLLPLALLLHAARPACVLHLVPINATSKDDSDVTEVMWQPALRRGRGLQAQGYGVRIQDAGVYLLYSQVLFQDVTFTMGQVVSREGQGRQETLFRCIRSMPSHPDRAYNSCYSAGVFHLHQGDILSVIIPRARAKLNLSPHGTFLGFVKLGTGGGGSGGGGSGGGGSEFDIQMTQSPSSLSASVGDRVTITCKASDHINNWLAWYQQKPGQAPKLLIYGATTLETGVPSRFSGSGSGTDYTLTISSLQPEDFATYYCQQSWNTPWTFGQGTKLEIKRLEDLKNVFPPEVAVFEPSEAEISHTQKATLVCLATGFYPDHVELSWWVNGKEVHSGVCTDPQPLKEQPALNDSRYCLSSRLRVSATFWQNPRNHFRCQVQFYGLSENDEWTQDRAKPVTQIVSAEAWGRADCGFTSESYQQGVLSATILYEILLGKATLYAVLVSALVLMAMVKRKDSRGRAKRSGSGATNFSLLKQAGDVEENPGPTSATMDWIWRILFLVGAATGAHSGPEVQLVESGGGLVQAGGSLRLSCAASGRTFSMGWFRQAPGKEREFVAAITYSGGSPYYADSVKGRFTISRDNAKNTVYLQMNSLKPEDTAVYYCAANPTYGSDWNAENWGQGTQVTVSSGSGGGGSGGGGSGGGGSFEQVQLQQPGAELVKPGASVKMSCKASGYAFSSYWINWMKQKPGQGLEWIGQIYPGDGDTNYNGKFKGRATLTADTSSSTAYMQLSSLTSEDSAVYFCARSITTVVGCAMDYWGQGTSVTVSSTRIQNPDPAVYQLRDSKSSDKSVCLFTDFDSQTNVSQSKDSDVYITDKCVLDMRSMDFKSNSAVAWSNKSDFACANAFNNSIIPEDTFFPSPESSCDVKLVEKSFETDTNLNFQNLSVIGFRILLLKVAGFNLLMTLRLWSSRAKRSGSGVKQTLNFDLLKLAGDVESNPGPSRGHMTEYKPTVRLATRDDVPRAVRTLAAAFADYPATRHTVDPDRHIERVTELQELFLTRVGLDIGKVWVADDGAAVAVWTTPESVEAGAVFAEIGPRMAELSGSRLAAQQQMEGLLAPHRPKEPAWFLATVGVSPDHQGKGLGSAVVLPGVEAAERAGVPAFLETSAPRNLPFYERLGFTVTADVEVPEGPRTWCMTRKPGA | retained the ability to respond
